According to patent publication US20090203580:

Legend:
[1] = tested on: heat-inactivated alpha-1 antitrypsin
[2] = tested on: human alpha-1 antitrypsin (native, not heat-inactivated; clinical grade, e.g. Aralast)

Which results are given for “elastase (e.g., Sigma), species not stated”?
elastase activity: hydrolysis of N-Succinyl-Ala-Ala-Ala-p-nitroanalide, absorbance at 410 nm [1]: combining HIAAT with elastase produced a curve similar to that of elastase alone; elastase activity: hydrolysis of N-Succinyl-Ala-Ala-Ala-p-nitroanalide, absorbance at 410 nm [2]: Combining native (NOT heat-inactivated) AAT ablated elastase processing of the N-Succinyl-Ala-Ala-Ala-p-nitroanalide substrate and blocked the increase in A410 nm
